# US20150306241
# T1: PEG2000-peptide-PTX
# T1 chain: GPLGIAGQ
# Target: T1, PEG2000-peptide-PTX
protein,measurement,value
"Human active MMP2 protein (MW 66,000 Da) (protein) YNFFPRKPKWDKNQITYRIIGYTPDLDPETVDDAFARAFQVWSDVTPLRFSRIHDGEADIMINFGRWEHGDGYPFDGKDGLLAHAFAPGTGVGGDSHFDDDELWTLGEGQVVRVKYGNADGEYCKFPFLFNGKEYNSCTDTGRSDGFLWCSTTYNFEKDGKYGFCPHEALFTMGGNAEGQPCKFPFRFQGTSYDSCTTEGRTDGYRWCGTTEDYDRDKKYGFCPETAMSTVGGNSEGAPCVFPFTFLGNKYESCTSAGRSDGKMWCATTANYDDDRKWGFCPDQGYSLFLVAAHEFGHAMGLEHSQDPGALMAPIYTYTKNFRLSQDDIKGIQELYGASPDIDLGTGPTPTLGPVTPEICKQDIVFDGIAQIRGEIFFFKDRFIWRTVTPRDKPMGPLLVATFWPELPEKIDAVYEAPQEEKAVFFAGNEYWIYSASTLERGYPKPLTSLGLPPDVQRVDAAFNWSKNKKTYIFAGDKFWRYNEVKKKMDPGFPKLIADAWNAIPDNLDAVVDLQGGGHSYFFKGAYYLKLENQSLKSVKFGSIKSDWLGC",enzymatic digestion followed by TLC (5 ng/µL human MMP2),the MMP2 completely cleaved the peptide linker resulting in two digestion fragments (IAGQ-PTX and PEG-GPLG)
